The data set can be described thus: label from the status in PepcDB records.
As to “MDTSNATSVVNVSASSSTSTIYDLGNMSKDEVVKLFEELGVFQAAILMFSYMYQAQSNLSIAKFADMNEASKASTTAQKMANLVDAKIADVQSSTDKNAKAKLPQDVIDYINDPRNDISVTGIRDLSGDLSAGDLQTVKAAISAKANNLTTVVNNSQLEIQQMSNTLNLLTSARSDVQSLQYRTISAISLGK”, the protein production result is recorded as “failed”.

As to “SGESIPLAAPVPVEQAVLETFFSHLGIFSYDKAKDNVEKEREANKSAGGSWLSLLAALAHLAAAEKVYHSLTYLGQKLGGQSFFSRKDSIRTIYTSLHNELKKVVAGRGAPGGTAPHVEELLPHLSEQLCFFVQARMEIADFYEKMYALSTQKFINTEELVSTLDTILRKYSSRFHHPILSPLESSFQLEVGVLSHLLKAQAQISEWKFLPSLVTLHNAHTKLQSWGQTFEKQRETKKHLFGGQSQKAVQPPHLFLWLMKLKTMLLAKFSFYFHEALSRQTTASEMKALTAKANPDLFGKISSFIRKYDAANVSLIFDNRGSESFQGHGYHHPHSYREAPKGVDQYPAVVSLPSDRPVMHWPNVIMIMTDRASDLNSLEKVVHFYDDKVQSTYFLTRPEPHFTIVVIFESKKSERDSHFISFLNELSLALKNPKVFASLKPGSKG”, the protein production result was “not failed”. With “TAGKKAAMDRLSTQEGIISALAIDQRGALKKMIKALDVEPTDAQIETFKELVSKELTPYASAILLDPEYGLPAAKARDTEAGLLLAYEKTGYDATTPGRLPDLLADWSVLRLKEEGADAIKFLLYYDVDEDPEINHQKHVFIERLGSECAEEDLPFYLELVSYDAQIADATSLEYAKVKPHKVNEMMKEFSKPQYKVDVLKVEVPVNMNFVEGFAPAETAYTKEEAANYFLEQSQATDLPFIFLSAGVSTELFQETLRFAKEAGSTFNGVLCGRATWKNGVKPFVEAGETAACDWLKTEGRENIESLNEVIAATASSWHAKVQVNE”, the protein production entry is “failed”.

With “LNSAPTPRDVVANAPAPVQAAVAGAQEYAAQAGLNTEELAVDALYNAIKVRLAGTGLGIPPQIEAFYQANRTNFNGFYMANRGAIDFIFSM”, the protein production entry is reported as “not failed”. The value for “MPEMADVMQTQAGDAGAFRHFDLSRVPTPCFVVDEVAIERNLKILRDISDRSGAHVLSALKAFSMFTLAPLVRQYLGGTCASGIYEARLGREEYGGEVATFCAGYKEQDIDEILSLSNHIIFNSPAQKDRFLSRAQAAGVQVGLRINPEHSEGEIAKYDPCAPCSRLGTPVSLLTPETLKGVDGLHMHTLCEQGFEPLLRTWAAVEPKLAPYLPGLKWLNFGGGHHITRADYDRDALIDFLKSLRARHGLDVYLEPGEAVALDAGILVGEILDLPSNGMDLAITDISATCHMPDVIEAPYRPALMDEADSGHTYRLGGPSCLAGDVIGDYTWDQPLTIGQRFAFLDQAHYSMVKTNTFNGVPLPTIALWNSKTDALRIVRQFDYSDFKDRLS” was “not failed”; that for “MQPGWMSSRFYQTCDWIWKLAYINLLWLSGTLLGLVVLGFLPATTAMFTVLRKWFTGNPDVAITRTFFQAYKNEFLKINLLGAVLLLGAYILYFNYMYLGTVEGTVHMVLSLGWYAFLILYIITLFYIIPAYVHYNLKLFQYIKTALIIGFVNPLALVTLAISIGLLGYLLYLVPGLIPFFGPSTFALIVMWCANMSFNRVEKKKEKLELAGQN” was “failed”; that for “MKQTAESIRDRFMKLGIDVPVEDIESRLDELIKKFKVPSNEAQRSVTNYFLKKYSIPKNEFYVRQAEPQLTKIVDIVENGQWANLKAKVIQLWENTHESISQVGLLGDETGIIKFTIWKNAELPLLEQGESYLLRSVVVGEYNDRFQVQVNKNSSIEKLSEPIEVGGGDFTPAAREAELRNIADLTGNQWATVRGKVIQLWENSHESIEQAGLIGDETGVIKFTNWASSELPDMEEGRSYLLKNVVVNEWNGKAQVQLNRSSSIEELDEDIEVRTSMSSYFGAMVDIQTGSGLIKRCPECKRALVKGACAEHGKVKGEYDLRIKAVLDSGTSTQDALINRELTEELSGISLDSAIAMAADALDPGVVLDKLKHELVGRYYTITGHKLDRYILVESITPRTSLDRELLDQMLAEPIAQPEVELEHHHHHH” was “not failed”. Under “MTGIWEENTGKQSGDHSTPLRWRCFKHEKNRPPSLVPGQQSGIILACFRRGPPPRCLVKRLPYPGSALVLRRYIMSTSPVTLMVARRVADGRYQDLIAWLREGEQLATDFPGYLGSGVLAPPPNDDEFQIIFRFADESTLHTWEHSASRTAWLARGSDLFAHPSEHRVSGIDGWFGAAGHRPPRWKQAVAIWLAFFPVSLLFNFVLGPLLGDLSLLPRVFVSTLALTPLMVYFFIPLSTRLLANWLNSTPARPLPATPSTQNP” stands “failed”.

Values taken from a protein production outcome set (Wang et al. 2014).
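Also: failed if final PepcDB status was selected cloned or expressed and not failed if soluble or beyond.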
